Measured values published in patent US12522647B2, “Beta-arrestin mutants” (PAUL SCHERRER INSTITUT, priority 2019, dated 2026).

Biological target: T1, β2-adrenergic receptor (β2AR, B2AR) (Homo sapiens, UniProt P07550)
T1 construct: expressed in transfected cells; host or cells: HEK293 cells (transient co-transfection, Lipofectamine 2000)
Assay: BRET arrestin recruitment assay: isoproterenol-induced recruitment of GFP-arrestin-3 WT or mutants to RLuc8-β2AR
Assay type: cell-based
Settings: for Potency (pEC50 ± Std. error): isoproterenol concentration giving half-maximal arrestin recruitment to β2AR, BRET AUC over 19.5 min, isoproterenol 10 pM to 10 μM; for Recruitment to B2AR compared to wild-type arrestin-3 (in words): isoproterenol concentration-response curves, FIG. 1; for Efficacy (Emax ± Std. error) in %, normalized to WT: maximal isoproterenol-induced recruitment to β2AR, WT arrestin-3 at 10 μM isoproterenol set to 100%
Experimental: […] were seeded onto poly-L-lysine coated, white, 96-well plates at a density of ˜25,000 cells per well. […] The day following transfection, cell culture medium was exchanged with fresh medium. Another 24 h later cell culture medium was replaced with assay buffer (HBSS+20 mM HEPES and pH 7.4) and cells were treated with 5 μM cell-permeable substrate Coelenterazine 400A (Cayman Chemical), which is catalysed by the BRET donor RLuc8, resulting in the emission of light (λmax=410 nm). BRET measurement was performed in a plate reader PheraStar FSX (BMG Biotech) with the optical module (BRET2 plus, 515-30, 410-80). At t=4.5 min, isoproterenol (Tocris Bioscience) was added at increasing concentrations to the cells (from 10 pM to 10 μM). BRET ratio was determined by calculating the ratio of the light intensity emitted by the GFP (515 nm) over the light intensity emitted by the Rluc8/Coelenterazine 400A (410 nm). […] The coefficient of determination R^2 can range between 0 and 1 and represents the quality of the fitting between the experimental values (marks, FIG. 1) and the non-linear regression analysis (curves, FIG. 1). Experiments were performed in technical duplicates in two independent experiments.
An arrestin recruitment assay based on Bioluminescence Resonance Energy Transfer (BRET) was performed to compare the recruitment efficiencies of arrestin-3 double and triple mutants with wild-type arrestin-3 towards B2AR.
The recruitment responses can be defined by two pharmacological parameters: potency and efficacy. In general, efficacy (Emax) is a measure of the maximum effect that is expected from a compound/drug. […] Potency is often given as the EC50 value, which defines the amount of compound required to produce 50% of that compound's maximal effect. For simpler illustration, the pEC50 value, which is the negative logarithm of the EC50 in molar concentrations, is shown.
The potency (pEC50) represents the molar concentration of isoproterenol necessary to obtain half of the total recruitment of arrestin-3 or efficiency (Emax) for each arrestin.

Molecule | Potency (pEC50 ± Std. error) | Recruitment to B2AR compared to wild-type arrestin-3 (in words) | Efficacy (Emax ± Std. error) in %, normalized to WT [%] | EC50 (converted from pEC50, isoproterenol-induced recruitment to β2AR, read-out: Potency expressed as isoproterenol concentration) [nM]
Double mutant A: Arrestin-3 double mutant containing T299A and I386A when compared to human wt arrestin-3 | 7.1±0.03 | increased recruitment efficacy | 131.5±1.82 | 
Triple mutant B: Arrestin-3 triple mutant containing T299A, I386A and R166A when compared to human wt arrestin-3 (protein, Arrestin-3 triple mutant B containing T299A, I386A and R166A) MGEKPGTRVFKKSSPNCKLTVYLGKRDFVDHLDKVDPVDGVVLVDPDYLKDRKVFVTLTCAFRYGREDLDVLGLSFRKDLFIATYQAFPPVPNPPRPPTRLQDRLLRKLGQHAHPFFFTIPQNLPCSVTLQPGPEDTGKACGVDFEIRAFCAKSLEEKSHKRNSVALVIRKVQFAPEKPGPQPSAETTRHFLMSDRSLHLEASLDKELYYHGEPLNVNVHVTNNSTKTVKKIKVSVRQYADICLFSTAQYKCPVAQLEQDDQVSPSSTFCKVYTITPLLSDNREKRGLALDGKLKHEDANLASSTIVKEGANKEVLGILVSYRVKVKLVVSRGGDVSVELPFVLMHPKPHDHIPLPRPQSAAPETDVPVDTNLIEFDTNYATDDDAVFEDFARLRLKGMKDDDYDDQLC | 7.3±0.06 | increased recruitment efficacy | 103.0 ± 2.53 | 50.1
Triple mutant C: Arrestin-3 triple mutant containing T299A, I386A and D298A when compared to human wt arrestin-3 (protein, Arrestin-3 triple mutant C containing T299A, I386A and D298A) MGEKPGTRVFKKSSPNCKLTVYLGKRDFVDHLDKVDPVDGVVLVDPDYLKDRKVFVTLTCAFRYGREDLDVLGLSFRKDLFIATYQAFPPVPNPPRPPTRLQDRLLRKLGQHAHPFFFTIPQNLPCSVTLQPGPEDTGKACGVDFEIRAFCAKSLEEKSHKRNSVRLVIRKVQFAPEKPGPQPSAETTRHFLMSDRSLHLEASLDKELYYHGEPLNVNVHVTNNSTKTVKKIKVSVRQYADICLFSTAQYKCPVAQLEQDDQVSPSSTFCKVYTITPLLSDNREKRGLALDGKLKHEAANLASSTIVKEGANKEVLGILVSYRVKVKLVVSRGGDVSVELPFVLMHPKPHDHIPLPRPQSAAPETDVPVDTNLIEFDTNYATDDDAVFEDFARLRLKGMKDDDYDDQLC | 7.2 ± 0.04 |  | 108.9 ± 1.84 | 
Triple mutant D: Arrestin-3 triple mutant containing T299A, I386A and R393A when compared to human wt arrestin-3 (protein, Arrestin-3 triple mutant D containing T299A, I386A and R393A) MGEKPGTRVFKKSSPNCKLTVYLGKRDFVDHLDKVDPVDGVVLVDPDYLKDRKVFVTLTCAFRYGREDLDVLGLSFRKDLFIATYQAFPPVPNPPRPPTRLQDRLLRKLGQHAHPFFFTIPQNLPCSVTLQPGPEDTGKACGVDFEIRAFCAKSLEEKSHKRNSVRLVIRKVQFAPEKPGPQPSAETTRHFLMSDRSLHLEASLDKELYYHGEPLNVNVHVTNNSTKTVKKIKVSVRQYADICLFSTAQYKCPVAQLEQDDQVSPSSTFCKVYTITPLLSDNREKRGLALDGKLKHEDANLASSTIVKEGANKEVLGILVSYRVKVKLVVSRGGDVSVELPFVLMHPKPHDHIPLPRPQSAAPETDVPVDTNLIEFDTNYATDDDAVFEDFAALRLKGMKDDDYDDQLC | 7.2 ± 0.03 |  | 89.2 ± 1.23 | 
